Patent US20140294863A1, “SERUM ALBUMIN BINDING PEPTIDES FOR TUMOR TARGETING” (GENENTECH, INC., priority 2002, published 2014)
Marks after values point to notes of the source that are not given here. Bridges are numbered along the chain shown (N, C = ends). Where no end group is shown, it is not given here.

What was measured:
[1] = target: T1, rabbit albumin (Oryctolagus cuniculus, UniProt P49065); experiment: SA08b binding assay (peptide competition ELISA), rabbit albumin; parameters: purchased Sigma; details: concentrations of up to 100 μM; data not shown
T1 sequence (P49065 25-608): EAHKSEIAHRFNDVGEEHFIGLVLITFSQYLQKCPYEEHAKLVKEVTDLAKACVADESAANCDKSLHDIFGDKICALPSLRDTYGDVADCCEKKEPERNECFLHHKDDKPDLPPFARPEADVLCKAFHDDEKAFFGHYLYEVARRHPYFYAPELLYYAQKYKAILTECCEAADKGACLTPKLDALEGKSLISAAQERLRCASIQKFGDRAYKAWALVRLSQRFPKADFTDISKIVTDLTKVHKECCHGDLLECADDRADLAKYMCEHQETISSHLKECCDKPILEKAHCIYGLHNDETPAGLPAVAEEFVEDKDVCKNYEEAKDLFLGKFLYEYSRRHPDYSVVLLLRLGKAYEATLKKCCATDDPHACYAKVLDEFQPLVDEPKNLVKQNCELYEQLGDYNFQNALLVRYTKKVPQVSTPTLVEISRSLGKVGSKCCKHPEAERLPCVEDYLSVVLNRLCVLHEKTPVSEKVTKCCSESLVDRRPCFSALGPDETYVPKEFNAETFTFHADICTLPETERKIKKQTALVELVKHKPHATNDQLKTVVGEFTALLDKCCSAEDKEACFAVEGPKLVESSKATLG
From the text: (§1) Plates were blocked as described above.
(§2) Peptides corresponding to identified phage sequences were synthesized and their affinity for rat, rabbit or mouse albumin measured using the SA08b binding assay.

[2] = target: T2, rat albumin (Rattus norvegicus, UniProt P02770); experiment: SA08b binding assay (peptide competition ELISA), rat albumin; parameters: purchased Sigma; details: concentrations of up to 100 μM; data not shown
T2 sequence (P02770 25-608): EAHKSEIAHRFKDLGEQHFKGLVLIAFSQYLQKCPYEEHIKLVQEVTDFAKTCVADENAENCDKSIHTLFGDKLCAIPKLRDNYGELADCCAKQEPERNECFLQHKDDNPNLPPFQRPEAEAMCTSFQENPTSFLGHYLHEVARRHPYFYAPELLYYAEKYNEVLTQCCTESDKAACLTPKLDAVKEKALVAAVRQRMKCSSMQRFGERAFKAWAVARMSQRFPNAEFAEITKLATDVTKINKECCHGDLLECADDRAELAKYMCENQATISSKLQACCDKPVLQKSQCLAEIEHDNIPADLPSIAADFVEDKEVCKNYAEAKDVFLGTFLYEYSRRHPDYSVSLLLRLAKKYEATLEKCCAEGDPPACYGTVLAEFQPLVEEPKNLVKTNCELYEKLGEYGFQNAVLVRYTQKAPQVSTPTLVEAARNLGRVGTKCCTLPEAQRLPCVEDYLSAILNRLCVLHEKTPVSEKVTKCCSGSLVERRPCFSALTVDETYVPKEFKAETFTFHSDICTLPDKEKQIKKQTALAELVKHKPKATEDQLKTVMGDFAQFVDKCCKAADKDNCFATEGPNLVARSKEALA
From the text: as §1, §2

[3] = Pharmacokinetics of AB.Fab variants in mice (HER2 Binding ELISA); format: in vivo; details: Mouse, group mean profile; for t1/2β: 4D5-H8 fit to one-compartment model (one half life estimate)
Method: (§3) All pharmacokinetic (PK) studies were conducted according to protocols approved by the Institutional Animal Care and Use Committee at Genentech, Inc. Sprague Dawley rats were supplied by Charles River Laboratories (Hollister, Calif. USA). New Zealand White (NWZ) rabbits were supplied by Myrtle's Rabbitry (Thompson Station, Tenn. USA). BALB-c mice were supplied by Charles River (Hollister, Calif. USA).
Over the course of 7 days serum was collected in 3 mice per time point by retro-orbital bleed or cardiac stick.
(§4) Briefly, samples were added to microtiter wells coated with HER2ecd and incubated for 2 hours at room temperature. The wells were washed, and goat anti-huFab-HRP was added and incubated for 1 hour at room temperature. Unbound HRP was removed by washing and enzyme substrate was added to detect bound HRP. […] Concentrations of AB.Fab were extrapolated by comparison to a standard curve of the dosed molecule.
In mice, a group mean serum concentration versus time profile was determined, producing one estimate for pharmacokinetic parameters for each AB.Fab dosing group. […] AB.Fab variant 4D5-H8 was fit to a one compartment model and estimates for the PK parameters of AUC, CL, Half-Life (t1/2) and V1 were determined using WinNonlin® software (Pharsight, Inc., supra).

[4] = Pharmacokinetics of AB.Fab variants in rabbits (HER2 Binding ELISA); format: in vivo; details: Rabbit; group mean
Method: as §3, §4
(§5) For rats and rabbits, concentration versus time profiles for each animal were fit to a two compartment model using, iterative re-weighting to estimate the pharmacokinetic parameters of Area Under the Concentration-Time Curve (AUC), Clearance (CL), Beta Half-Life (t1/2β), Volume of Distribution of the Central Compartment (V1), and Steady State Volume of Distribution (Vss) using WinNonlin® software (Version 3.2, Pharsight, Inc.; Mountain View, Calif.) and group means were calculated.

[5] = Pharmacokinetics of AB.Fab variants in rats (HER2 Binding ELISA); format: in vivo; details: Rat; group mean
Method: as §3
At pre-dose, and over the course of 7 days post-dose, plasma was collected via a cannula inserted in the jugular vein.
as §4, §5

[6] = target: T2, rat albumin; experiment: Solution Binding ELISA, AB.Fab variants with soluble rat albumin; parameters: purchased Sigma; details: Rat albumin, as listed in Table 15; read-out: Kd for Albumin
[7] = target: T1, rabbit albumin; experiment: Phage ELISA, phage clones on immobilized rabbit albumin; format: binding; parameters: purchased Sigma; details: for phage binding to rabbit albumin at pH 2.9: data not shown
Method: (§6) Phage clones (approximately 10^11 phage) were added to Maxisorp plates coated with rat, rabbit, or human albumin or with mouse, bovine, or rhesus albumin (Sigma), as described above. The microtiter plate was washed with wash buffer and bound phage were detected following incubation with HRP/Anti-M13 Conjugate (Amerisham Pharmacia Biotech, Piscataway, N.J.).

[8] = target: T3, human albumin (Homo sapiens, UniProt P02768); experiment: Phage ELISA, phage clones on immobilized human albumin; format: binding
T3 construct: purchased Sigma
Method: as §6

[9] = target: albumin; experiment: SA08b binding assay / competition ELISA, albumin species not stated; details: albumin species not given

CN(C)c1cccc2c(S(=O)(=O)N(C)CC(=O)O)cccc12 [dansylsarcosine, reference compound]
effect on SA08b peptide binding to rabbit albumin [1]: no effect
effect on SA08b peptide binding to rat albumin [2]: no effect

CCCCCCCCCCCCCC(=O)O [myristic acid, reference compound]
effect on SA08b peptide binding to rabbit albumin [1]: no effect
effect on SA08b peptide binding to rat albumin [2]: no effect

AB.Fab 4D5-H4 (DICLPRWGCLWED; disulfide 3-9 (inferred); also: part of Fab heavy chain)
AUC [3]: 2070 µg·h/mL
CL [3]: 2.41 mL/h/kg
V1 [3]: 28.4 mL/kg
Vss [3]: 44.4 mL/kg
t1/2β [3]: 13.5 h
AUC [4]: 127 ± 16.5 µg·h/mL
CL [4]: 3.58 ± 0.496 mL/h/kg
V1 [4]: 30.5 ± 1.67 mL/kg
Vss [4]: 82.2 ± 10.2 mL/kg
t1/2β [4]: 28.3 ± 2.88 h
AUC [5]: 1450 ± 146 µg·h/mL
CL [5]: 3.24 ± 0.352 mL/h/kg
V1 [5]: 52.2 ± 4.21 mL/kg
Vss [5]: 76.0 ± 6.56 mL/kg
t1/2β [5]: 20.7 ± 1.07 h

AB.Fab 4D5-H8 (IEDICLPRWGCLWE; disulfide 5-11 (inferred); also: part of Fab heavy chain)
AUC [3]: 2610 µg·h/mL
CL [3]: 1.91 mL/h/kg
Vss [3]: 38.7 mL/kg
t1/2β [3]: 14.0^b hr
AUC [4]: 232 ± 62.7 µg·h/mL
CL [4]: 1.99 ± 0.477 mL/h/kg
V1 [4]: 29.6 ± 3.32 mL/kg
Vss [4]: 65.9 ± 7.10 mL/kg
t1/2β [4]: 36.2 ± 7.13 h
AUC [5]: 1890 ± 294 µg·h/mL
CL [5]: 2.44 ± 0.453 mL/h/kg
V1 [5]: 45.8 ± 8.11 mL/kg
Vss [5]: 85.9 ± 15.4 mL/kg
t1/2β [5]: 28.0 ± 1.88 h

AB.Fab 4D5-H10 (DICLPRWGCLW; disulfide 3-9 (inferred); also: part of Fab heavy chain)
AUC [4]: 33.7 ± 3.32 µg·h/mL
CL [4]: 13.5 ± 1.40 mL/h/kg
V1 [4]: 36.8 ± 4.12 mL/kg
Vss [4]: 98.7 ± 14.1 mL/kg
t1/2β [4]: 12.0 ± 2.21 h
AUC [5]: 541 ± 77.9 µg·h/mL
CL [5]: 9.21 ± 1.24 mL/h/kg
V1 [5]: 44.6 ± 2.04 mL/kg
Vss [5]: 75.3 ± 9.20 mL/kg
t1/2β [5]: 10.9 ± 2.86 h

AB.Fab 4D5-H11 (DICLPRWGCL; disulfide 3-9 (inferred); also: part of Fab heavy chain)
AUC [4]: 24.6 ± 2.74 µg·h/mL
CL [4]: 20.6 ± 2.24 mL/h/kg
V1 [4]: 40.4 ± 4.38 mL/kg
Vss [4]: 101 ± 31.7 mL/kg
t1/2β [4]: 11.9 ± 2.61 h
Kd [6]: 2500 nM
AUC [5]: 57.0 ± 7.39 µg·h/mL
CL [5]: 80.2 ± 11.8 mL/h/kg
V1 [5]: 48.7 ± 2.25 mL/kg
Vss [5]: 81.6 ± 5.76 mL/kg
t1/2β [5]: 4.21 ± 0.151 h

HSQMEDICLPRWGCLWGDEL [RB-B8]
phage binding to rabbit albumin at pH 2.9 [7]: no binding

QRHPEDICLPRWGCLWGDDD [RB-H1]
phage binding to rabbit albumin at pH 2.9 [7]: no binding

QRQMVDFCLPQWGCLWGDGF [RB, phage clone selected on rat SA, ID 35]
binding to rabbit albumin ([7]; phage ELISA): capable of binding
binding to human albumin [8]: capable of binding

linear peptide, identical to SA06, but having both Cys residues altered to Ala: linear peptide, identical to SA06, but having both Cys residues altered to Ala (LEYEDIALPKWGALWGGE)
IC50 [9]: > 50 µM
